Measured values published in paper PMC4652773, “Functional significance of protein assemblies predicted by the crystal structure of the restriction endonuclease BsaWI”.

Legend:
Assay in all cases: EMSA; 5 mM Ca2+; EMSA: 40 mM Tris-acetate pH 8.3, 0.1 mg/ml BSA, 10% glycerol, 5 mM CaCl2 or 0.1 mM EDTA, 1 nM DNA, room temperature, 15 min
BsaWI W262A = target: T1, BsaWI W262A (UniProt Q6UQ65 1-272, W262A); details: protein: recombinant; chain copies: 2; label: 33P; blunt
T1 sequence: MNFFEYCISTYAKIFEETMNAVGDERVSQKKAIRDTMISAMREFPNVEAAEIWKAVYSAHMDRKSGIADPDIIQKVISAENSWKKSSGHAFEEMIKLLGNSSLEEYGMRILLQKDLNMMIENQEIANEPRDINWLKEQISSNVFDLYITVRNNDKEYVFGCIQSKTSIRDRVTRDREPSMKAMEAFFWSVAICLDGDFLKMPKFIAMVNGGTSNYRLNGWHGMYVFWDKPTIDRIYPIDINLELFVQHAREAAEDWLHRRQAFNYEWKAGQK

BsaWI D145A = target: T2, BsaWI D145A (UniProt Q6UQ65 1-272, D145A); details: protein: recombinant; chain copies: 4; label: 33P; blunt
T2 sequence: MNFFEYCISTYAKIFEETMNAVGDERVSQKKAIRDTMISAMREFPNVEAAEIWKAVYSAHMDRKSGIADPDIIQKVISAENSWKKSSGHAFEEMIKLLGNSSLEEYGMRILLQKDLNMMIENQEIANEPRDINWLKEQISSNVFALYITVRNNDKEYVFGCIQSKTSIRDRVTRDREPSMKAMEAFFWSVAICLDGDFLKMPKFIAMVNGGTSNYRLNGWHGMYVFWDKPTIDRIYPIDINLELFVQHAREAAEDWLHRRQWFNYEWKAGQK

BsaWI E128A&W262A = target: T3, BsaWI E128A&W262A (UniProt Q6UQ65 1-272, E128A;W262A); details: protein: recombinant; chain copies: 2; label: 33P; blunt
T3 sequence: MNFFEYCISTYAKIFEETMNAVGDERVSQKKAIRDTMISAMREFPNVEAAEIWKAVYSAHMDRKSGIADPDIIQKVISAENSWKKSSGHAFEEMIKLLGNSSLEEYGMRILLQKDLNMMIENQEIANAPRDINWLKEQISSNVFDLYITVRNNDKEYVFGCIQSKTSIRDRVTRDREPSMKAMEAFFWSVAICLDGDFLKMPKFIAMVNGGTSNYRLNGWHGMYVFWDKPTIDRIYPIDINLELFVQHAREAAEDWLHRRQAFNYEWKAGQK

BsaWI K85A = target: T4, BsaWI K85A (UniProt Q6UQ65 1-272, K85A); details: protein: recombinant; chain copies: 4; label: 33P; blunt
T4 sequence: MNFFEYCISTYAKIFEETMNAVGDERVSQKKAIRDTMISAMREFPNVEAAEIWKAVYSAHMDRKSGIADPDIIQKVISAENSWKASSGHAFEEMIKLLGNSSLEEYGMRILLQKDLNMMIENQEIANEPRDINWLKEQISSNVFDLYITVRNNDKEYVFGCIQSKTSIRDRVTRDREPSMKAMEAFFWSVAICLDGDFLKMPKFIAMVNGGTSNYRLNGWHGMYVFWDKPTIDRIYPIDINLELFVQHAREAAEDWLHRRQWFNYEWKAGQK

BsaWI wt = target: T5, BsaWI wt (UniProt Q6UQ65 1-272); details: protein: recombinant; chain copies: 4; label: 33P; blunt
T5 sequence: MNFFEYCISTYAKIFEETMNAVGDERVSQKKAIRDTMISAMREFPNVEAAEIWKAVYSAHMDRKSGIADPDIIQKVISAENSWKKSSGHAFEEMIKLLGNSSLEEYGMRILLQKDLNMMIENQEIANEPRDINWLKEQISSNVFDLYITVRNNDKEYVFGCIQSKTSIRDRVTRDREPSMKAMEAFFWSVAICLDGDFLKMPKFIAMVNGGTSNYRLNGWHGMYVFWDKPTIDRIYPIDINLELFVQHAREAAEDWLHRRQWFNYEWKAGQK

BsaWI E128A = target: T6, BsaWI E128A (UniProt Q6UQ65 1-272, E128A); details: protein: recombinant; chain copies: 2; label: 33P; blunt
T6 sequence: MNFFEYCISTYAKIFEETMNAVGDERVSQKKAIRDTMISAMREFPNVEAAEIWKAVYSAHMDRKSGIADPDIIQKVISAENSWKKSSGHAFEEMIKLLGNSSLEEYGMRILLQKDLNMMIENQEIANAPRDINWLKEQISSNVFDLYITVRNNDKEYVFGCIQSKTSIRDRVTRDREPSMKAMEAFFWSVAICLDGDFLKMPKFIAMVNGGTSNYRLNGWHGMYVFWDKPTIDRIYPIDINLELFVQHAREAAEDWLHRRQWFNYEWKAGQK

BsaWI R130A = target: T7, BsaWI R130A (UniProt Q6UQ65 1-272, R130A); details: protein: recombinant; chain copies: 2; label: 33P; blunt
T7 sequence: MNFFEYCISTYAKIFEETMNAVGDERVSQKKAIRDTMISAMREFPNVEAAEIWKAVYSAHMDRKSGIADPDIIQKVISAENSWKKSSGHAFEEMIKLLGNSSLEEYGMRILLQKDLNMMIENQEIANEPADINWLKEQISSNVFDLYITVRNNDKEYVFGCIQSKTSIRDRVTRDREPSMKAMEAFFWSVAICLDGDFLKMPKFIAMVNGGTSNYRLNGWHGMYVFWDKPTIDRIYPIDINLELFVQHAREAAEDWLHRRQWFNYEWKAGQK

B1: SP (dsDNA)
DNA 1: GCCTTTCGGTTTACCGGTGTCATTCCGCTG
DNA 2: CAGCGGAATGACACCGGTAAACCGAAAGGC
BsaWI W262A
  Kd: 2.7 ± 0.8 nM
BsaWI D145A
  Kd: 17 ± 4.7 nM
BsaWI E128A&W262A
  Kd: 2.7 ± 0.7 nM
BsaWI K85A
  Kd: 229 ± 9.1 nM
BsaWI wt
  Kd: 2.9 ± 0.4 nM
BsaWI E128A
  Kd: 2.19 ± 0.4 nM
BsaWI R130A
  Kd: 3.9 ± 0.6 nM
